The results in this text go back to US20240301031A1 (JIANGSU HENGRUI PHARMACEUTICALS, published 2024).

Experiment [1] addresses T1, human BAFF (10056-HNCH, Sino biological) (human, UniProt Q9Y275 134-285).
T1 construct: Bought protein
Kind of experiment: ELISA, BAFF coated, fusion protein titrated. The protocol: (§1) The binding activity of the antibodies or fusion proteins for BAFF, APRIL, and IL-12/23 p40 was assayed by the ELISA method (coating an antigen protein). The specific procedures were as follows:
(§2) A BAFF (Sino biological, 10056-HNCH), APRIL (R&D Systems, 5860-AP-010/CF), or IL-12/23 p40 (Sino biological, 10052-H08H) protein was diluted to 1 μg/mL with a PBS (BasalMedia, B320) buffer at pH 7.4, and added to a 96-well microplate (Corning, 3590) at 100 μL/well. The plate was incubated at 4° C. overnight. After the liquid was discarded, 300 μL of 5% skim milk (BD, 232100) diluted with PBS was added to each well for blocking, and the plate was incubated at 37° C. for 2 h. After the blocking was completed, the blocking solution was discarded, and the plate was washed 3 times with a PBST buffer (PBS at pH 7.4 containing 0.1% tween-20). 100 μL of test antibody or fusion protein solution diluted in a gradient was added to each well, and the plate was incubated at 37° C. for 1 h. After the incubation was completed, the plate was washed 3 times with PBST. […] The plate was washed 3 times with PBST. 100 μL of TMB chromogenic substrate (KPL, 5120-0077) was added to each well, and the plate was incubated at room temperature for 10-15 min. The reaction was stopped by adding 50 μL of 1 M H₂SO₄ to each well. The plate was read for absorbance values at 450 nm on a microplate reader, the binding curves of the antibodies to an antigen were fitted with software, and the EC₅₀ values were calculated.

Experiment [2] concerns the target T1, human BAFF (10056-HNCH, Sino biological). In words: SPR (Biacore), sample captured on Protein A, antigen flowed, 1:1 fit. For orientation: SPR reads the build-up and loss of mass on a sensor chip optically.
In experiment [3] the target is T2, human APRIL (5860-AP-010/CF, R&D Systems) (human, UniProt O75888 115-250, limits assumed).
T2 construct: Bought protein
T2 sequence (looked up): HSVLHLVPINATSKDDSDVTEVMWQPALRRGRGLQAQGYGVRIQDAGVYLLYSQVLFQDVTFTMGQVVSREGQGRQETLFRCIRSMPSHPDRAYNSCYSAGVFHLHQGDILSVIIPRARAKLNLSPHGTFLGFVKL
The experiment is described as above. The protocol: A certain amount of test sample was subjected to affinity capture by a biosensor chip Protein A (GE, 29127556), then antigens at a series of concentration gradients were allowed to flow on the surface of the chip. The reaction signals were detected in real time by using Biacore (GE, 8K) to obtain association and dissociation curves. After the dissociation was completed for each cycle, the biochip was washed and regenerated with a 10 mM glycine-hydrochloric acid solution at pH 1.5 (GE, BR-1003-54). The experimental data were fitted using BIAevaluation version 4.1, GE software with a 1:1 model to obtain affinity values. The related antigen proteins used in this assay are as follows: human IL-23 (CT048-H08H, Sino biological), human IL-12 (CT050-H08H, Sino biological), human BAFF (10056-HNCH, Sino biological), human APRIL (5860-AP-010/CF, R&D Systems), cynomolgus monkey p40 (10215-CL, R&D Systems), cynomolgus monkey BAFF (BAF-CM412B, Kactus), cynomolgus monkey APRIL (APR-CM410B, Kactus), mouse BAFF (BAF-M521y, Acro Biosystems), and mouse APRIL (7907-AP/CF, R&D Systems).

Experiment [4] addresses T1, human BAFF (10056-HNCH, Sino biological). In words: ELISA, BAFF coated, fusion protein titrated. Here is the method:
as §1, §2
This is another data set of the same source.

The target is the same in experiment [5]. Kind of experiment: competition ELISA: biotin-labeled BAFF to coated BAFF-R. The protocol: (§3) The blocking activity of the antibodies and the fusion proteins for receptors and ligands such as BAFF/BAFF-R, BAFF/BCMA, BAFF/TACI, APRIL/BCMA, APRIL/TACI, and p40/IL-12R1 was assayed by the ELISA method. The specific procedures were as follows:
(§4) A receptor protein was diluted to 2 μg/mL with PBS at pH 7.4 (BasalMedia, B320) and added to a 96-well microplate (Corning, 3590) at 100 μL/well. The plate was incubated at 4° C. overnight. After the liquid was discarded, 200 μL of 1% Casein blocking solution (Thermo, 37528) was added to each well for blocking, and the plate was incubated at 37° C. for 2 h. After the blocking was completed, the blocking solution was discarded, and the plate was washed 3 times with a PBST buffer (PBS at pH 7.4 containing 0.1% tween-20) for later use. A biotin-labeled ligand protein at a fixed concentration was mixed with the antibody or fusion protein diluted in gradient, pre-incubated at 37° C. for 30 min, and added to a blocked microplate. The plate was incubated at 37° C. for 1.5 h. After the incubation was completed, the plate was washed 3 times with PBST. 100 μL of streptavidin-HRP (Invitrogen, 434323, diluted at a ratio of 1:4000) was added to each well, and the plate was incubated at 37° C. for 1 h. The supernatant was removed, and the plate was washed 3 times with PBST. 100 μL of TMB chromogenic substrate (KPL, 5120-0077) was added to each well, and the plate was incubated at room temperature for 10-15 min. The reaction was stopped by adding 50 μL of 1 M H₂SO₄ to each well. The plate was read for absorbance values at 450 nm on a microplate reader, the curves for the inhibition of the binding of the ligands to the receptors were fitted with software, and the IC₅₀ values were calculated.
Background: An ELISA detects its analyte on a solid surface through an enzyme-linked reagent.

For experiment [6] the target is unchanged. The description is as above. The protocol:
as §3, §4
This is another data set of the same source.

Experiment [7] has as its target T3, BAFF (ACROBiosystems, BAF-H5248) (UniProt Q9Y275 134-285).
T3 construct: Bought protein used in the ELISA with coated test sample
Kind of experiment: ELISA, fusion protein coated, BAFF titrated, Anti-His-HRP. The protocol: The binding activity of the TACI fusion proteins for BAFF and APRIL was assayed by the ELISA method (coating a test fusion protein sample). The specific procedures were as follows:
The test sample was diluted to 2 μg/mL with a PBS (BasalMedia, B320) buffer at pH 7.4 and added to a 96-well microplate (Corning, 3590) at 100 μL/well. The plate was incubated at 4° C. overnight. After the liquid was discarded, 300 μL of 5% skim milk (BD, 232100) diluted with PBS was added to each well for blocking, and the plate was incubated at 37° C. for 2 h. After the blocking was completed, the blocking solution was discarded, and the plate was washed 3 times with a PBST buffer (PBS at pH 7.4 containing 0.1% tween-20). 100 μL of BAFF (ACROBiosystems, BAF-H5248) or APRIL (R&D Systems, 5860-AP-010/CF) diluted in a gradient was added to each well, and the plate was incubated at 37° C. for 1 h. After the incubation, the plate was washed 3 times with PBST. When detecting the binding to BAFF, 100 μL of Anti-His-HRP (Sino biological, 105327-MM02T-H, diluted at a ratio of 1:2000) was added to each well; when detecting the binding to APRIL, 100 μL of anti-HA-HRP (Abcam, ab1190, diluted at a ratio of 1:4000) was added to each well. The plate was incubated at 37° C. for 1 h. The plate was washed 3 times with PBST. 100 μL of TMB chromogenic substrate (KPL, 5120-0077) was added to each well, and the plate was incubated at room temperature for 10-15 min. The reaction was stopped by adding 50 μL of 1 M H₂SO₄ to each well. The plate was read for absorbance values at 450 nm on a microplate reader, the binding curves of the antibodies to an antigen were fitted with software, and the EC₅₀ values were calculated.

In experiment [8] the target is T1, human BAFF (10056-HNCH, Sino biological). Kind of experiment: competition ELISA: biotin-labeled BAFF to coated BAFF-R. The protocol: as §3, §4
The source holds these as a separate data set.

Where a chain is given by its changes, count along the chain named. Where two headings read alike, the source gives them in different places.

Broadly, the EC50 is the concentration giving half of the maximal effect. Broadly, the Kd is the constant that tells how readily two partners part at equilibrium. A low value points to tighter binding. As a reminder, the koff is the rate constant with which the complex falls apart. Broadly, the kon is a measure of how fast the partners come together. Broadly, the IC50 is the concentration at which inhibition is half-maximal.

B1: TACI-9 Fc (Fc fusion)
chain: SLSCRKEQGKFYDHLLRDCISCASICGQHPKQCAYFCENKLDKTHTCPPCPAPEAEGAPSVFLFPPKPKDTLMISRTPEVTCVVVDVSHEDPEVKFNWYVDGVEVHNAKTKPREEQYNSTYRVVSVLTVLHQDWLNGKEYKCKVSNKALPSSIEKTISKAKGQPREPQVYTLPPSRDELTKNQVSLTCLVKGFYPSDIAVEWESNGQPENNYKTTPPVLDSDGSFFLYSKLTVDKSRWQQGNVFSCSVMHEALHNHYTQKSLSLSPGK
notes: TACI positions 68-108, no mutation, fused directly to Fc; two identical polypeptides
Consider B1, for which the EC50 was found to be 0.49 nM in experiment [1] and 0.418 nM in experiment [4]. Besides, the results for the Kd in experiment [2] and in experiment [3] were 0.0748 nM and 0.018 nM, respectively. Also, the figures for the koff in experiment [2] and in experiment [3] were 1.62e-05 s⁻¹ and 0.000207 s⁻¹, respectively. For the same molecule, the figures for the kon in experiment [2] and in experiment [3] were 217000 M⁻¹ s⁻¹ and 1.15e+07 M⁻¹ s⁻¹, respectively. For the same molecule, the figures for the IC50 in experiment [5] and in experiment [6] were 2.09 nM and 5.02 nM, respectively.

B2: TACI-12 Fc (Fc fusion)
chain: SLSCRKEQGKFYDHLLRDCISCASICGQHPKQCAYFCEDKTHTCPPCPAPEAEGAPSVFLFPPKPKDTLMISRTPEVTCVVVDVSHEDPEVKFNWYVDGVEVHNAKTKPREEQYNSTYRVVSVLTVLHQDWLNGKEYKCKVSNKALPSSIEKTISKAKGQPREPQVYTLPPSRDELTKNQVSLTCLVKGFYPSDIAVEWESNGQPENNYKTTPPVLDSDGSFFLYSKLTVDKSRWQQGNVFSCSVMHEALHNHYTQKSLSLSPGK
notes: TACI-9 truncated at the C-terminus by 3 amino acids NKL, fused directly to Fc; two identical polypeptides
B2 displayed a concentration giving a half-maximal response (EC50) in experiment [1] of 0.894 nM. Besides, the IC50 in experiment [5] is 3.86 nM.

B3: TACI-9-15Fc5 fusion protein (Fc fusion)
chain: B2 chain with L2T, K6E, K10E, Y35A
notes: Full-length chain
In experiment [7], B3 gave an EC50 of 8.89 nM. In experiment [8], the IC50 came to 1.44 nM.

B4: TACI-13 Fc (Fc fusion)
chain: SLSCRKEQGKFYDHLLRDCISCASICGQHPKQCAYFCDKTHTCPPCPAPEAEGAPSVFLFPPKPKDTLMISRTPEVTCVVVDVSHEDPEVKFNWYVDGVEVHNAKTKPREEQYNSTYRVVSVLTVLHQDWLNGKEYKCKVSNKALPSSIEKTISKAKGQPREPQVYTLPPSRDELTKNQVSLTCLVKGFYPSDIAVEWESNGQPENNYKTTPPVLDSDGSFFLYSKLTVDKSRWQQGNVFSCSVMHEALHNHYTQKSLSLSPGK
notes: Fused directly to Fc; two identical polypeptides
B4 came in with an EC50 in experiment [1] of 3.66 nM. Besides, in experiment [5], the IC50 turned out to be 30.1 nM.

B5: TACI-14 Fc (Fc fusion)
chain: SLSCRKEQGKFYDHLLRDCISCASICGQHPKQCAYFDKTHTCPPCPAPEAEGAPSVFLFPPKPKDTLMISRTPEVTCVVVDVSHEDPEVKFNWYVDGVEVHNAKTKPREEQYNSTYRVVSVLTVLHQDWLNGKEYKCKVSNKALPSSIEKTISKAKGQPREPQVYTLPPSRDELTKNQVSLTCLVKGFYPSDIAVEWESNGQPENNYKTTPPVLDSDGSFFLYSKLTVDKSRWQQGNVFSCSVMHEALHNHYTQKSLSLSPGK
notes: as for B4
In turn, B5 yielded an EC50 in experiment [1] of 64.2 nM. For the same molecule, the IC50 in experiment [5] came to 780 nM.

B6: TACI-11 Fc (Fc fusion)
chain: SLSCRKEQGKFYDHLLRDCISCASICGQHPKQCAYFCENDKTHTCPPCPAPEAEGAPSVFLFPPKPKDTLMISRTPEVTCVVVDVSHEDPEVKFNWYVDGVEVHNAKTKPREEQYNSTYRVVSVLTVLHQDWLNGKEYKCKVSNKALPSSIEKTISKAKGQPREPQVYTLPPSRDELTKNQVSLTCLVKGFYPSDIAVEWESNGQPENNYKTTPPVLDSDGSFFLYSKLTVDKSRWQQGNVFSCSVMHEALHNHYTQKSLSLSPGK
notes: TACI-9 truncated at the C-terminus by 2 amino acids KL, fused directly to Fc; two identical polypeptides
As to B6, it took 0.584 nM to reach a half-maximal effect in experiment [1] (EC50). In addition, the IC50 in experiment [5] amounted to 2.62 nM.
